Measurements from the Human Domainome abundance scans (Beltran et al. 2025).
± gives the uncertainty stated by the source.

B1: Friend leukemia integration 1 transcription factor, residues 116 to 197; numbered along this chain, Q01543 (parent)
chain: NMTTNERRVIVPADPTLWTQEHVRQWLEWAIKEYSLMEIDTSFFQNMDGKELCKMNKEDFLRATTLYNTEVLLSHLSYLRES
B2: Retinoic acid receptor RXR-alpha, residues 132 to 208; numbered along this chain, P19793 (parent)
chain: KHICAICGDRSSGKHYGVYSCEGCKGFFKRTVRKDLTYTCRDNKDCLIDKRQRNRCQYCRYQKCLAMGMKREAVQEE

Variants of: B1
Assay: abundance fitness (aPCA) (normalised: wild type 0, dead -1); higher = more abundant; growth selection in yeast, the domain comes from the species named
Conditions: Homo sapiens

Variant | abundance fitness
NMDTNERRVIVPADPTLWTQEHVRQWLEWAIKEYSLMEIDTSFFQNMDGKELCKMNKEDFLRATTLYNTEVLLSHLSYLRES | -0.537 ± 0.5
NMCTNERRVIVPADPTLWTQEHVRQWLEWAIKEYSLMEIDTSFFQNMDGKELCKMNKEDFLRATTLYNTEVLLSHLSYLRES | 0.009 ± 0.2
NMETNERRVIVPADPTLWTQEHVRQWLEWAIKEYSLMEIDTSFFQNMDGKELCKMNKEDFLRATTLYNTEVLLSHLSYLRES | -0.392 ± 0.3
NMATNERRVIVPADPTLWTQEHVRQWLEWAIKEYSLMEIDTSFFQNMDGKELCKMNKEDFLRATTLYNTEVLLSHLSYLRES | 0.089 ± 0.16
NTTTNERRVIVPADPTLWTQEHVRQWLEWAIKEYSLMEIDTSFFQNMDGKELCKMNKEDFLRATTLYNTEVLLSHLSYLRES | -0.231 ± 0.13
NQTTNERRVIVPADPTLWTQEHVRQWLEWAIKEYSLMEIDTSFFQNMDGKELCKMNKEDFLRATTLYNTEVLLSHLSYLRES | 0.011 ± 0.16
NFTTNERRVIVPADPTLWTQEHVRQWLEWAIKEYSLMEIDTSFFQNMDGKELCKMNKEDFLRATTLYNTEVLLSHLSYLRES | 0.092 ± 0.17
NVTTNERRVIVPADPTLWTQEHVRQWLEWAIKEYSLMEIDTSFFQNMDGKELCKMNKEDFLRATTLYNTEVLLSHLSYLRES | -0.584 ± 0.11
NETTNERRVIVPADPTLWTQEHVRQWLEWAIKEYSLMEIDTSFFQNMDGKELCKMNKEDFLRATTLYNTEVLLSHLSYLRES | -0.361 ± 0.18
NDTTNERRVIVPADPTLWTQEHVRQWLEWAIKEYSLMEIDTSFFQNMDGKELCKMNKEDFLRATTLYNTEVLLSHLSYLRES | -0.545 ± 0.48
NWTTNERRVIVPADPTLWTQEHVRQWLEWAIKEYSLMEIDTSFFQNMDGKELCKMNKEDFLRATTLYNTEVLLSHLSYLRES | -0.057 ± 0.14
NLTTNERRVIVPADPTLWTQEHVRQWLEWAIKEYSLMEIDTSFFQNMDGKELCKMNKEDFLRATTLYNTEVLLSHLSYLRES | -0.005 ± 0.07
NGTTNERRVIVPADPTLWTQEHVRQWLEWAIKEYSLMEIDTSFFQNMDGKELCKMNKEDFLRATTLYNTEVLLSHLSYLRES | 0.119 ± 0.12
NPTTNERRVIVPADPTLWTQEHVRQWLEWAIKEYSLMEIDTSFFQNMDGKELCKMNKEDFLRATTLYNTEVLLSHLSYLRES | -0.099 ± 0.13
NRTTNERRVIVPADPTLWTQEHVRQWLEWAIKEYSLMEIDTSFFQNMDGKELCKMNKEDFLRATTLYNTEVLLSHLSYLRES | 0.057 ± 0.089
NKTTNERRVIVPADPTLWTQEHVRQWLEWAIKEYSLMEIDTSFFQNMDGKELCKMNKEDFLRATTLYNTEVLLSHLSYLRES | -0.314 ± 0.14
NITTNERRVIVPADPTLWTQEHVRQWLEWAIKEYSLMEIDTSFFQNMDGKELCKMNKEDFLRATTLYNTEVLLSHLSYLRES | -0.081 ± 0.12
NNTTNERRVIVPADPTLWTQEHVRQWLEWAIKEYSLMEIDTSFFQNMDGKELCKMNKEDFLRATTLYNTEVLLSHLSYLRES | -0.184 ± 0.31
VMTTNERRVIVPADPTLWTQEHVRQWLEWAIKEYSLMEIDTSFFQNMDGKELCKMNKEDFLRATTLYNTEVLLSHLSYLRES | -0.166 ± 0.12
GMTTNERRVIVPADPTLWTQEHVRQWLEWAIKEYSLMEIDTSFFQNMDGKELCKMNKEDFLRATTLYNTEVLLSHLSYLRES | -0.212 ± 0.14
KMTTNERRVIVPADPTLWTQEHVRQWLEWAIKEYSLMEIDTSFFQNMDGKELCKMNKEDFLRATTLYNTEVLLSHLSYLRES | -0.34 ± 0.35
RMTTNERRVIVPADPTLWTQEHVRQWLEWAIKEYSLMEIDTSFFQNMDGKELCKMNKEDFLRATTLYNTEVLLSHLSYLRES | -0.111 ± 0.2
MMTTNERRVIVPADPTLWTQEHVRQWLEWAIKEYSLMEIDTSFFQNMDGKELCKMNKEDFLRATTLYNTEVLLSHLSYLRES | -0.031 ± 0.19
AMTTNERRVIVPADPTLWTQEHVRQWLEWAIKEYSLMEIDTSFFQNMDGKELCKMNKEDFLRATTLYNTEVLLSHLSYLRES | -0.076 ± 0.25
YMTTNERRVIVPADPTLWTQEHVRQWLEWAIKEYSLMEIDTSFFQNMDGKELCKMNKEDFLRATTLYNTEVLLSHLSYLRES | 0.004 ± 0.3
LMTTNERRVIVPADPTLWTQEHVRQWLEWAIKEYSLMEIDTSFFQNMDGKELCKMNKEDFLRATTLYNTEVLLSHLSYLRES | -0.137 ± 0.45
IMTTNERRVIVPADPTLWTQEHVRQWLEWAIKEYSLMEIDTSFFQNMDGKELCKMNKEDFLRATTLYNTEVLLSHLSYLRES | 0.178 ± 0.41

Variants of: B2
Assay: as above
Conditions: Homo sapiens

Variant | abundance fitness
KHICAICGDRSSGKHYGVYSCEGCKGFFKRTVRKDLTYTCRDNKDCLIDKRQRNRCQYCRYQKCLAMGMKREAVQNE | 0.022 ± 0.037
KHICAICGDRSSGKHYGVYSCEGCKGFFKRTVRKDLTYTCRDNKDCLIDKRQRNRCQYCRYQKCLAMGMKREAVQFE | 0.003 ± 0.035
KHICAICGDRSSGKHYGVYSCEGCKGFFKRTVRKDLTYTCRDNKDCLIDKRQRNRCQYCRYQKCLAMGMKREAVQDE | 0.05 ± 0.041
KHICAICGDRSSGKHYGVYSCEGCKGFFKRTVRKDLTYTCRDNKDCLIDKRQRNRCQYCRYQKCLAMGMKREAVQHE | -0.012 ± 0.036
KHICAICGDRSSGKHYGVYSCEGCKGFFKRTVRKDLTYTCRDNKDCLIDKRQRNRCQYCRYQKCLAMGMKREAVQLE | 0.01 ± 0.028
KHICAICGDRSSGKHYGVYSCEGCKGFFKRTVRKDLTYTCRDNKDCLIDKRQRNRCQYCRYQKCLAMGMKREAVQGE | 0.05 ± 0.038
KHICAICGDRSSGKHYGVYSCEGCKGFFKRTVRKDLTYTCRDNKDCLIDKRQRNRCQYCRYQKCLAMGMKREAVQCE | 0.023 ± 0.044
KHICAICGDRSSGKHYGVYSCEGCKGFFKRTVRKDLTYTCRDNKDCLIDKRQRNRCQYCRYQKCLAMGMKREAVQRE | -0.037 ± 0.036
KHICAICGDRSSGKHYGVYSCEGCKGFFKRTVRKDLTYTCRDNKDCLIDKRQRNRCQYCRYQKCLAMGMKREAVQSE | -0.034 ± 0.029
KHICAICGDRSSGKHYGVYSCEGCKGFFKRTVRKDLTYTCRDNKDCLIDKRQRNRCQYCRYQKCLAMGMKREAVQVE | 0 ± 0.035
KHICAICGDRSSGKHYGVYSCEGCKGFFKRTVRKDLTYTCRDNKDCLIDKRQRNRCQYCRYQKCLAMGMKREAVQWE | -0.052 ± 0.053
KHICAICGDRSSGKHYGVYSCEGCKGFFKRTVRKDLTYTCRDNKDCLIDKRQRNRCQYCRYQKCLAMGMKREAVQPE | -0.054 ± 0.034
KHICAICGDRSSGKHYGVYSCEGCKGFFKRTVRKDLTYTCRDNKDCLIDKRQRNRCQYCRYQKCLAMGMKREAVQME | -0.036 ± 0.042
KHICAICGDRSSGKHYGVYSCEGCKGFFKRTVRKDLTYTCRDNKDCLIDKRQRNRCQYCRYQKCLAMGMKREAVQKE | -0.099 ± 0.06
KHICAICGDRSSGKHYGVYSCEGCKGFFKRTVRKDLTYTCRDNKDCLIDKRQRNRCQYCRYQKCLAMGMKREAVQYE | -0.011 ± 0.035
KHICAICGDRSSGKHYGVYSCEGCKGFFKRTVRKDLTYTCRDNKDCLIDKRQRNRCQYCRYQKCLAMGMKREAVQTE | -0.049 ± 0.032
KHICAICGDRSSGKHYGVYSCEGCKGFFKRTVRKDLTYTCRDNKDCLIDKRQRNRCQYCRYQKCLAMGMKREAVQQE | 0.001 ± 0.044
KHICAICGDRSSGKHYGVYSCEGCKGFFKRTVRKDLTYTCRDNKDCLIDKRQRNRCQYCRYQKCLAMGMKREAVYEE | -0.092 ± 0.036
KHICAICGDRSSGKHYGVYSCEGCKGFFKRTVRKDLTYTCRDNKDCLIDKRQRNRCQYCRYQKCLAMGMKREAVVEE | 0.013 ± 0.034
KHICAICGDRSSGKHYGVYSCEGCKGFFKRTVRKDLTYTCRDNKDCLIDKRQRNRCQYCRYQKCLAMGMKREAVTEE | -0.011 ± 0.028
KHICAICGDRSSGKHYGVYSCEGCKGFFKRTVRKDLTYTCRDNKDCLIDKRQRNRCQYCRYQKCLAMGMKREAVPEE | -0.002 ± 0.033

Variant | abundance fitness
KHICAICGDRSSGKHYGVYSCEGCKGFFKRTVRKDLTYTCRDNKDCLIDKRQRNRCQYCRYQKCLAMGMKREAVSEE | -0.004 ± 0.028
KHICAICGDRSSGKHYGVYSCEGCKGFFKRTVRKDLTYTCRDNKDCLIDKRQRNRCQYCRYQKCLAMGMKREAVREE | 0.003 ± 0.031
KHICAICGDRSSGKHYGVYSCEGCKGFFKRTVRKDLTYTCRDNKDCLIDKRQRNRCQYCRYQKCLAMGMKREAVWEE | -0.129 ± 0.054
KHICAICGDRSSGKHYGVYSCEGCKGFFKRTVRKDLTYTCRDNKDCLIDKRQRNRCQYCRYQKCLAMGMKREAVMEE | 0.043 ± 0.036
KHICAICGDRSSGKHYGVYSCEGCKGFFKRTVRKDLTYTCRDNKDCLIDKRQRNRCQYCRYQKCLAMGMKREAVNEE | -0.052 ± 0.037
KHICAICGDRSSGKHYGVYSCEGCKGFFKRTVRKDLTYTCRDNKDCLIDKRQRNRCQYCRYQKCLAMGMKREAVQED | -0.002 ± 0.05
KHICAICGDRSSGKHYGVYSCEGCKGFFKRTVRKDLTYTCRDNKDCLIDKRQRNRCQYCRYQKCLAMGMKREAVQEQ | -0.012 ± 0.055
KHICAICGDRSSGKHYGVYSCEGCKGFFKRTVRKDLTYTCRDNKDCLIDKRQRNRCQYCRYQKCLAMGMKREAVQEL | -0.012 ± 0.039
KHICAICGDRSSGKHYGVYSCEGCKGFFKRTVRKDLTYTCRDNKDCLIDKRQRNRCQYCRYQKCLAMGMKREAVQEF | 0.1 ± 0.058
KHICAICGDRSSGKHYGVYSCEGCKGFFKRTVRKDLTYTCRDNKDCLIDKRQRNRCQYCRYQKCLAMGMKREAVQEW | 0.04 ± 0.061
KHICAICGDRSSGKHYGVYSCEGCKGFFKRTVRKDLTYTCRDNKDCLIDKRQRNRCQYCRYQKCLAMGMKREAVQET | 0.106 ± 0.041
KHICAICGDRSSGKHYGVYSCEGCKGFFKRTVRKDLTYTCRDNKDCLIDKRQRNRCQYCRYQKCLAMGMKREAVQEH | 0.02 ± 0.039
KHICAICGDRSSGKHYGVYSCEGCKGFFKRTVRKDLTYTCRDNKDCLIDKRQRNRCQYCRYQKCLAMGMKREAVQEI | 0.038 ± 0.044
KHICAICGDRSSGKHYGVYSCEGCKGFFKRTVRKDLTYTCRDNKDCLIDKRQRNRCQYCRYQKCLAMGMKREAVQEC | 0.013 ± 0.041
KHICAICGDRSSGKHYGVYSCEGCKGFFKRTVRKDLTYTCRDNKDCLIDKRQRNRCQYCRYQKCLAMGMKREAVQEV | -0.002 ± 0.041
KHICAICGDRSSGKHYGVYSCEGCKGFFKRTVRKDLTYTCRDNKDCLIDKRQRNRCQYCRYQKCLAMGMKREAVQEK | 0.008 ± 0.077
KHICAICGDRSSGKHYGVYSCEGCKGFFKRTVRKDLTYTCRDNKDCLIDKRQRNRCQYCRYQKCLAMGMKREAVQER | 0.003 ± 0.035
KHICAICGDRSSGKHYGVYSCEGCKGFFKRTVRKDLTYTCRDNKDCLIDKRQRNRCQYCRYQKCLAMGMKREAVQEN | 0.065 ± 0.049
KHICAICGDRSSGKHYGVYSCEGCKGFFKRTVRKDLTYTCRDNKDCLIDKRQRNRCQYCRYQKCLAMGMKREAVQEG | 0.073 ± 0.038
KHICAICGDRSSGKHYGVYSCEGCKGFFKRTVRKDLTYTCRDNKDCLIDKRQRNRCQYCRYQKCLAMGMKREAVQEY | 0.023 ± 0.044
KHICAICGDRSSGKHYGVYSCEGCKGFFKRTVRKDLTYTCRDNKDCLIDKRQRNRCQYCRYQKCLAMGMKREAVQEM | -0.034 ± 0.057
